# Test results as given in PMC12084551.
# Target: full-length GAS2 (GAS2-FL (1–314)) (mouse) (UniProt P11862)
# Assay: SEC; Superdex 75 HR 10/300; 30 mM Tris-HCl pH 8.0, 300 mM KCl, 100 μM ZnCl2, 0.1% β-ME; molecular weight from a calibration with BSA, carbonic anhydrase and cytochrome c
row,Substance,stoichiometry N
1,full-length GAS2 (GAS2-FL (1–314)) (from UniProt P11862 1-314) (natural protein),2

# Target: microtubules (MTs) polymerized from porcine brain tubulin (pig (porcine brains)) (UniProt Q2XVP4)
# Assay: co-sedimentation; GAS2 proteins at different concentrations with Taxol-stabilized MTs in BRB80 with 1 mM GTP, room temperature, 20 min; 186,000 × g, 10 min, 25 °C; SDS-PAGE, one site-specific binding fit
row,Substance,Kd [µM]
1,GAS2-GAR G255A (from UniProt P11862 198-314) (domain or fragment),2.69
2,GAS2-GAR G255E (from UniProt P11862 198-314) (domain or fragment),9.6
3,GAS2-GAR K266E (from UniProt P11862 198-314) (domain or fragment),10.6
4,GAS2-GAR R242E (from UniProt P11862 198-314) (domain or fragment),5
5,GAS2-GAR R252E (from UniProt P11862 198-314) (domain or fragment),47
6,GAS2-GAR W257E (from UniProt P11862 198-314) (domain or fragment),27
7,GAS2-GAR domain (residues 198–314) (from UniProt P11862 198-314) (domain or fragment),0.69
